Source: US9539338B2, “Polymer-based protein engineering methods to rationally tune enzyme activity, pH-dependence and stability” (Carnegie Mellon University, priority 2013, dated 2017)

Assay: In vitro gastric acid stability, 167 mM HCl, 37° C.
Format: physicochemical
Conditions: 167 mM HCl (pH 1), 3 hours
Description: Native CT and CT-conjugates were incubated at 4 μM in 167 mM HCl at 37° C. in 50 μL aliquots. Aliquots were removed at specified time points and residual activity was measured at 25° C. in 0.1 M sodium phosphate buffer (pH 8.0) with Suc-AAPF-pNA as substrate (288 μM). Each time point was measured in duplicate and residual activity was calculated as the ratio of activity remaining from time zero.

With “α-Chymotrypsin (CT) from bovine pancreas (type II) [Native CT]” the activity maintained was “complete activity loss”.
